From patent publication US20210095036A1 (University of Pennsylvania, published 2021)

T1: human GFRα4 isoform a (GFRα4a) on transduced cells (human, UniProt Q9GZZ7-2 21-248)
T1 construct: whole, on cells; also called Nalm6 cells expressing the GFRα4 isoform a
T1 sequence (looked up): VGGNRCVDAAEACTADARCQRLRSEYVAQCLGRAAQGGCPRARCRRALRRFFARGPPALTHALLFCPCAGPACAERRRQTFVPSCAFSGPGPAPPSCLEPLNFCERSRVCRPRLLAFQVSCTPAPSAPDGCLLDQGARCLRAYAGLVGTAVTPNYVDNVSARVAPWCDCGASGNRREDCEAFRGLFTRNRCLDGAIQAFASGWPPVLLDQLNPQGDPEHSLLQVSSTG

B1: CD19-Fc (Fc fusion, UniProt P15391 20-291, looked up)
chain: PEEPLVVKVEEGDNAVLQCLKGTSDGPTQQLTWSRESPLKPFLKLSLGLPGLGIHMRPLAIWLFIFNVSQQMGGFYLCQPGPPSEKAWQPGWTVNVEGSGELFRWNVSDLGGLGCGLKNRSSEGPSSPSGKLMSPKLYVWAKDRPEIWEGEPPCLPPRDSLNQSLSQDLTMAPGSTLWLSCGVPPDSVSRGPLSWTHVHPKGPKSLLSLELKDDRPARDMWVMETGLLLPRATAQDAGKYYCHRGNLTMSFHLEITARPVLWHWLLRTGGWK
notes: The words recombinant human Fc-fusions leave open whether human means the Fc or the antigen; also called recombinant human Fc-fusion of CD19 antigen; Fc-conjugated soluble CD19; not shown: human Fc
B2: CAR P4-10, the original rabbit GFRα4-directed CAR (other)
VH: QSVKESEGGLFKPTDTLTLTCTVSGFSLSRHALTWVRQAPGNGLEWIGAIDNAGTTYYASWAKSRSTITRNTDLHTVTLKMTSLTASDTATYFCARVFYDINSGYYLDGMDLWGPGTLVTVSS
VL: QFVLTQSPSVSAALGASAKLTCTLSSAHKTYTIDWYQQQQGEAPRYLMQVKSDGSYTKGTGVPDRFSGSSSGADRYLIIPSVQADDEAGYVCGADDNGGYVFGGGTQLTVT
notes: Chimeric antigen receptor on transduced human T cells, one chain in fact; also called P410bbz; P4-10 CAR
B3: P4-10 antibody (full-length rabbit IgG containing the P4-10 rabbit variable regions) (antibody, V domains shown)
VH: B2 VH
VL: B2 VL
notes: Full-length rabbit IgG, lambda light chain; also called anti-GFRα4 P4-10 antibody; rabbit P4-10

Experiments:
CAR-29 = target: T2, CAR-29 (human, UniProt P01732 183-206; Q07011 214-255; P20963 52-163); assay: flow cytometry of CAR T cells stained with Fc-fusion antigen and anti-human Fc-specific antibodies
T2 construct: domain: transmembrane domain;domain: 4-1BB domain;domain: CD3zeta domain; Chimeric antigen receptor on transduced human T cells; also called pTRPE-C29-gs-BBz
T2 sequence (P01732 other isoform, or with tags, fused parts or gaps limits assumed): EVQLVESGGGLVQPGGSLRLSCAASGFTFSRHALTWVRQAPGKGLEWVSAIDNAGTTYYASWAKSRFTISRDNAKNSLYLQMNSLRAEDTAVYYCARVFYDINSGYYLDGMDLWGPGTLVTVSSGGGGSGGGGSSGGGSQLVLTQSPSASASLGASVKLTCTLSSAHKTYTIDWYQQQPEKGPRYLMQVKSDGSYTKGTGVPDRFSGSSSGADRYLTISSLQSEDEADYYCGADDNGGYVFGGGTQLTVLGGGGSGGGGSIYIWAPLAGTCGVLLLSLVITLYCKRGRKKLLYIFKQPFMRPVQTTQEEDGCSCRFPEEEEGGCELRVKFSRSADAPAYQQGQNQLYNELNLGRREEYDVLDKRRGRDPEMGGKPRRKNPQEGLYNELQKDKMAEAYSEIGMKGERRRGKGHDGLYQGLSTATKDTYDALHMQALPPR
Procedure: (§1) To create CAR-T expressing cells, human T cells from healthy donors were activated with anti-CD3 and anti-CD28 coated paramagnetic beads (DYNABEADS® Human T-Activator CD3/CD28, Life Technologies). One day following activation, cells were transduced with lentiviral vectors encoding GFRα4-directed CARs (original rabbit P4-10 and humanized versions), a CD19-directed control CAR (FMC63(cd8)bbz), or were left non-transduced (NTD). Cells were expanded and on day 7, cells were evaluated for cell-surface expression of the CARs by flow cytometry (FACSCalibur, BD Biosciences, Franklin Lakes, N.J.). Fluorescently-labeled goat anti-rabbit antibodies detected CAR P4-10, the original rabbit GFRα4-directed CAR, and fluorescently-labeled Protein L detected the murine CD19-directed CAR (FIG. 19A, “P410” and “19bbz”, respectively). Fluorescently-labeled rabbit anti-human antibodies (“RaH”) detected CARs 10, 14, 25, and 29 (FIG. 19B). Expression of cell-surface CARs were also detected by staining with antigen using recombinant human Fc-fusions of GFRα4 or CD19 antigen followed by detection of bound antigen with fluorescently-labeled anti-human Fc-specific antibodies (FIG. 19C). Appropriately, CD19-Fc only bound to CD19-directed CARs while GFRα4-Fc bound to both rabbit P4-10 and humanized P4-10 CARs but not the CD19-directed CAR.

CAR-10 = target: T3, CAR-10 (human, UniProt P01732 183-206; Q07011 214-255; P20963 52-163); assay: as above
T3 construct: domain: transmembrane domain;domain: 4-1BB domain;domain: CD3zeta domain; Chimeric antigen receptor on transduced human T cells; also called CAR10bbz; pTRPE-C10-gs-BBz
T3 sequence (P01732 other isoform, or with tags, fused parts or gaps limits assumed): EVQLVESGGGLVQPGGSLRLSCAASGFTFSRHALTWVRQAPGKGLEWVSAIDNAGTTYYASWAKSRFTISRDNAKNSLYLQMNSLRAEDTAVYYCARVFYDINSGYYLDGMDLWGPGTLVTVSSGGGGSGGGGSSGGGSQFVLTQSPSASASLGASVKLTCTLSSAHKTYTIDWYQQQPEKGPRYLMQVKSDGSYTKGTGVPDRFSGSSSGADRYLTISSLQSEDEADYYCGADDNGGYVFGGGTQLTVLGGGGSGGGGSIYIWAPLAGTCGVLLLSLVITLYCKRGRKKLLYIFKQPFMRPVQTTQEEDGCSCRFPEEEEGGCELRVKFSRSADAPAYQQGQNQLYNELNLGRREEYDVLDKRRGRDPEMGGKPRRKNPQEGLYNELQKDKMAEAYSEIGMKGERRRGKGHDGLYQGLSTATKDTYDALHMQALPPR
Procedure: as §1

CAR-25 = target: T4, CAR-25 (human, UniProt P01732 183-206; Q07011 214-255; P20963 52-163); assay: as above
T4 construct: domain: transmembrane domain;domain: 4-1BB domain;domain: CD3zeta domain; Chimeric antigen receptor on transduced human T cells; also called pTRPE-C25-gs-BBz
T4 sequence (P01732 other isoform, or with tags, fused parts or gaps limits assumed): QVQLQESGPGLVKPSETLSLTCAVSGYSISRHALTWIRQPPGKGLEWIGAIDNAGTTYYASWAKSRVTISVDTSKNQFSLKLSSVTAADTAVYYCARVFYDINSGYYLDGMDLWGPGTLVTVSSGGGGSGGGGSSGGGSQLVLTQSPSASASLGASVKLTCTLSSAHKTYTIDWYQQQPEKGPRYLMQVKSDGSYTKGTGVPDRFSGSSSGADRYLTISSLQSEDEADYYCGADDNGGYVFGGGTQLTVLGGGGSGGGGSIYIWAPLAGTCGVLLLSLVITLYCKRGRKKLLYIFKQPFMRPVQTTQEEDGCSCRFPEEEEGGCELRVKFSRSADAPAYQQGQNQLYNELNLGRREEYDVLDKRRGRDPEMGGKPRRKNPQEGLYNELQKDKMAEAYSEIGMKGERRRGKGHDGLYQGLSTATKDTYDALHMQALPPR
Procedure: as §1

CAR-14 = target: T5, CAR-14 (human, UniProt P01732 183-206; Q07011 214-255; P20963 52-163); assay: as above
T5 construct: domain: transmembrane domain;domain: 4-1BB domain;domain: CD3zeta domain; Chimeric antigen receptor on transduced human T cells; also called pTRPE-C14-gs-BBz
T5 sequence (P01732 other isoform, or with tags, fused parts or gaps limits assumed): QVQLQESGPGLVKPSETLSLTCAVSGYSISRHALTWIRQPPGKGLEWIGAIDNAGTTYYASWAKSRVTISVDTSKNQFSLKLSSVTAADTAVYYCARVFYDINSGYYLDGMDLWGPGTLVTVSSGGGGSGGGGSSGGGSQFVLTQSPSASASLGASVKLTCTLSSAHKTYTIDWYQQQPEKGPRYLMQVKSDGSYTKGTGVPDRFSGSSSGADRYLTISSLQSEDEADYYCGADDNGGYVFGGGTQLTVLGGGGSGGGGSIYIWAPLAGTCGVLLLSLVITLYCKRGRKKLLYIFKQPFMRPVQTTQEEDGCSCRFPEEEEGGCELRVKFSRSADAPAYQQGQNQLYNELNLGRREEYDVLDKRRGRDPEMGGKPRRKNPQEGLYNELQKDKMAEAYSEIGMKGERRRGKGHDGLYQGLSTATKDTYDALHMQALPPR
Procedure: as §1

CD19-Fc = target: B1; assay: as above
Procedure: as §1

[1] = target: T6, GFRα4 isoform b (GFRα4b), Fc fusion (human); assay: flow cytometry of CAR T cells stained with Fc-fusion antigen and anti-human Fc-specific antibodies (FIG. 19C)
T6 construct: the entry holds the whole fusion; also called GFR4α4b; GFRα4-Fc
Procedure: as §1

[2] = target: T1, human GFRα4 isoform a (GFRα4a) on …; assay: flow cytometry and sorting of Nalm6 cells transduced with human GFRα4a-T2A-GFP
Procedure: Cytotoxicity of target cells by GFRα4-directed CAR-T cells was evaluated using a 51Cr release-assay. Target cells comprised either Nalm6 cells (a CD19-expressing B-cell precursor leukemia cell line (ATCC® CRL-3273TM)), Nalm6 cells expressing the GFRα4 isoform a (GFRα4a) or isoform b (GFRα4b), or TT cells (a human medullary thyroid cancer cell line (ATCC® CRL-1803TM)). Nalm6 cells expressing GFRα4 proteins were produced by transduction with lentiviral vectors encoding human GFRα4a-T2A-GFP or human GFRα4b-T2A-GFP (Milone et al. (2009) Molecular Therapy., 17: 1453-1464). […] P4-10 antibody comprised a full-length rabbit IgG containing the P4-10 rabbit variable regions and was a gift of Novartis Pharmaceuticals.

Binder: B1
binding result (CAR-29): no binding
binding result (CAR-10): no binding
binding result (CAR-25): no binding
binding result (CAR-14): no binding

Binder: B2
binding result (CD19-Fc): no binding
binding result [1]: binds

Binder: B3
binding result [2]: binds
